B1: aSA3 (VHH)
VHH: QVQLVESGGGLVQPGGSLRLSCAASGFTSDHYALAWFRQAPGKEREGVSCIDSDGNPFYADSVKGRFTGSRDNAKNTVYLQMNSLKLEDTAVYYCAAGLWYGRSLNSFDYDYWGQGTQVTVSS
B2: aRBD-2 (VHH)
VHH: QVQLVESGGGLVQAGGSLRLSCAASGRTYTMGWFRQAPGKEREFVAAMRWSDTDYADSLKGRFTISRDNANNAMYLQMNSLGPEDTAVYYCAAGEAWLARSTHHYDYWGQGTQVTVSS

Experiments:
WT SARS2 RBD [1] = target: T1, WT SARS2 RBD (SARS-CoV-2 Wuhan (MN908947), UniProt P0DTC2); assay: cell-based or functional assay
WT SARS2 RBD [2] = target: T1, WT SARS2 RBD; assay: SPR; conditions: both partners purified

| Binder | IC50, neutralisation of WT SARS2 pseudovirus (blocks RBD-ACE2) (WT SARS2 RBD [1]) | Kd (WT SARS2 RBD [2]) | binding result (WT SARS2 RBD [2]) |
| --- | --- | --- | --- |
| B1 | 0.97 nM | 0.0519 nM | – |
| B2 | – | – | binds |

Source: publication PMC9734137 (Cell Discovery, 2022)
